{"source": "paper PMC8263772", "target": "dog angiotensin-converting enzyme 2 (dACE2) ectodomain, 6xHis (dog)", "assay": "SPR", "data": [{"substance": "SARS-CoV-2 spike (S) protein receptor binding domain (RBD), wild type (from UniProt P0DTC2) (domain or fragment)", "values": [{"measurement": "Kd", "value": 0.123, "unit": "µM"}]}]}
